From patent publication US20100098683A1 (Dana-Farber, published 2010)

Target: T1, hFc-MUC1-C/ED (MUC1-C extracellular domain fused to human Fc) (human, UniProt P15941 1098-1155, secreted from CHO-K1 cells; the filing reports N-linked glycosylation of MUC1-C at Asn-36)
T1 construct: Purified on protein A; also called hFc-MUC1-C extracellular domain; not shown: human Fc fragment (hFc) amplified from the CD5-IgG1 plasmid (Aruffo et al., 1990)
T1 sequence: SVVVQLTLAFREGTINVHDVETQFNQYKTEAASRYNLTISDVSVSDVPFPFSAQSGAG
Assay: SPR (BIACORE 3000, 25 C), galectin-3(63-250) amine-coupled to a CM5 chip, hFc-MUC1-C/ED injected at 0-100 nM, 1:1 binding with drifting baseline; galectin-3(63-250), CRD fragment

B1: galectin-3(63-250) (ligand)
chain: YHGAPGAYPGAPAPGVYPGPPSGPGAYPSSGQPSAPGAYPATGPYGAPAGPLIVPYNLPLPGGVVPRMLITILGTVKPNANRIALDFQRGNDVAFHFNPRFNENNRRVIVCNTKLDNNWGREERQSVFPFESGKPFKIQVLVEPDHFKVAVNDAHLLQYNHRVKKLNEISKLGISGDIDLTSASYTMI
notes: Fragment that contains the CRD, purified from E. coli and coupled to a CM5 chip
Kd: 9.8 nM
